Measurements taken from patent publication US20230365658A1 (LAWRENCE LIVERMORE NATIONAL SECURITY, published 2023).

B1: mAb_RBD_2130_FAB_20211231_00199 (antibody, V domains shown)
VH: EVQLVESGGGLVKPGGSLRLSCAASGFTFRDVWMSWVRQAPGKGLEWVGRIKSKIDGGTTDYAAPVKGRFTISRDDSKNTLYLQMNSLKTEDTAVYYCTTAGSYYYDTVGPGLPEGKFDYWGQGTLVTVSS
VL: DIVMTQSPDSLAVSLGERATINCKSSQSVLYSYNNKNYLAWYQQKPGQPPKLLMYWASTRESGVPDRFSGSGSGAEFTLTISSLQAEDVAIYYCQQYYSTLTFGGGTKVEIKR
B2: mAb_v2130Vanderbilt_184_20220114_00111 (antibody, V domains shown)
VH: EVQLVESGGGLVKPGGSLRLSCAASGFTFRDVWMSWVRQAPGKGLEWVGRIKSKIDGGTTDYAAPVKGRFTISRDDSKNTLYLQMNSLKTEDTAVYYCTTAGSYYYDTVGPELPEGKFDYWGQGTLVTVSS
VL: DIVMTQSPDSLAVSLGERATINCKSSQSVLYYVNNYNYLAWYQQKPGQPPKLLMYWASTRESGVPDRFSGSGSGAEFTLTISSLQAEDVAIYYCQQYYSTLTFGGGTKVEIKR
notes: also called LLNL198
B3: mAb_v2130Vanderbilt_184_20220114_00112 (antibody, V domains shown)
VH: EVQLVESGGGLVKPGGSLRLSCAASGFTFRDVWMSWVRQAPGKGLEWVGRIKSKIDGGTTDYAAPVKGRFTISRDDSKNTLYLQMNSLKTEDTAVYYCTTAGSYYYDTVGPELPEGKFDYWGQGTLVTVSS
VL: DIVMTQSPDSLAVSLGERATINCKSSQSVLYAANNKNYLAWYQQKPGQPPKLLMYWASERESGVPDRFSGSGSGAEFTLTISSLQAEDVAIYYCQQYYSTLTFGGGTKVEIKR
B4: v2130_upsample_20220121_00298 (antibody, V domains shown)
VH: EVQLVESGGGLVKPGGSLRLSCAASGFTFRDVWMSWVRQAPGKGLEWVGRIKSKEDGGTTDYAAPVKGRFTISRDDSKNTLYLQMNSLKTEDTAVYYCTTAGSYYHDTVGPGLPEGKFDYWGQGTLVTVSS
VL: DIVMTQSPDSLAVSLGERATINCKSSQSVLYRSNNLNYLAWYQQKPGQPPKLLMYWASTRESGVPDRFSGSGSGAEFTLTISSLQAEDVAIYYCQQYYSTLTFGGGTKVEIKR
B5: v2130_upsample_20220121_00009 (antibody, V domains shown)
VH: EVQLVESGGGLVKPGGSLRLSCAASGFTFRDVWMSWVRQAPGKGLEWVGRIKSKIDGGTTDYAAPVKGRFTISRDDSKNTLYLQMNSLKTEDTAVYYCTTAGSYYDDTVGPGLPEGKIDYWGQGTLVTVSS
VL: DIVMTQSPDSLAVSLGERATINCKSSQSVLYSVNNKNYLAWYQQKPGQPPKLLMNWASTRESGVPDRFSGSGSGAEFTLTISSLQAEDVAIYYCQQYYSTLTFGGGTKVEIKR
B6: mAb_v2130JustStableLines_20220111_00002 (antibody, V domains shown)
VH: EVQLVESGGGLVKPGGSLRLSCAASGFTFRDVWMSWVRQAPGKGLEWVGRIKSKDDGGTTDYAAPVKGRFTISRDDSKNTLYLQMNSLKTEDTAVYYCTTAGSYYYDTVGPGLPEGKFDYWGQGTLVTVSS
VL: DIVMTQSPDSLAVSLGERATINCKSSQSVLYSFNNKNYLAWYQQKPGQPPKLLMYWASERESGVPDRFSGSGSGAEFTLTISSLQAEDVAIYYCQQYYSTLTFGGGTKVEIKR
notes: also called LLNL010
B7: v2130_upsample_20220121_00354 (antibody, V domains shown)
VH: EVQLVESGGGLVKPGGSLRLSCAASGFTFRDVWMSWVRQAPGKGLEWVGRIKSKIDGGTTDYAAPVKGRFTISRDDSKNTLYLQMNSLKTEDTAVYYCTTAGSYYYDTRGPELPEGKFDYWGQGTLVTVSS
VL: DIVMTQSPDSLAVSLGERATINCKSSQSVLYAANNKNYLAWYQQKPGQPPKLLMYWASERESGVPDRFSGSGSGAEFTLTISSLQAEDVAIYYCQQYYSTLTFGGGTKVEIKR

Columns and labels:
[1] = target: T1, SARS-CoV-2 spike (S) glycoprotein, Omicron BA.2 (SARS-CoV-2, UniProt P0DTC2 14-1273); experiment: cell-based or functional assay
[2] = target: T2, SARS-CoV-2 spike (S) glycoprotein, Omicron BA.1 (SARS-CoV-2, UniProt P0DTC2 14-1273); experiment: cell-based or functional assay
[3] = target: T3, SARS-CoV-2 spike (S) glycoprotein, Omicron BA.1.1 (SARS-CoV-2, UniProt P0DTC2 14-1273); experiment: cell-based or functional assay
[4] = target: T1, SARS-CoV-2 spike (S) glycoprotein, …; experiment: cell-based or functional assay; remark: listed apart in the source
[5] = target: T4, SARS-CoV-2 spike (S) glycoprotein, Omicron BA.4 (SARS-CoV-2, UniProt P0DTC2 14-1273); experiment: cell-based or functional assay
[6] = target: T5, SARS-CoV-2 spike (S) glycoprotein, D614G (SARS-CoV-2, UniProt P0DTC2 14-1273); experiment: cell-based or functional assay
[7] = target: T2, SARS-CoV-2 spike (S) glycoprotein, …; experiment: cell-based or functional assay; remark: listed apart in the source
[8] = target: T3, SARS-CoV-2 spike (S) glycoprotein, …; experiment: cell-based or functional assay; remark: listed apart in the source
[9] = target: T6, SARS-CoV-2 Spike-RBD, Delta (SARS-CoV-2, UniProt P0DTC2 319-541); experiment: Gyrolab immunoassay, IgG titrated on Spike-RBD, relative binding (FI)
T6 construct: domain: RBD; also called Delta RBD

[10] = target: T6, SARS-CoV-2 Spike-RBD, Delta; experiment: Gyros full-curve immunoassay, mAb titrated on RBD, relative binding (FI)
[11] = target: T1, SARS-CoV-2 spike (S) glycoprotein, …; experiment: cell-based or functional assay; remark: listed apart in the source
[12] = target: T4, SARS-CoV-2 spike (S) glycoprotein, …; experiment: cell-based or functional assay; remark: listed apart in the source
[13] = target: SARS-CoV-2 spike (S) glycoprotein, Omicron BA.2.75 (SARS-CoV-2, UniProt P0DTC2 14-1273); experiment: cell-based or functional assay
[14] = target: SARS-CoV-2 spike (S) glycoprotein, Omicron BA.2.12.1 (SARS-CoV-2, UniProt P0DTC2 14-1273); experiment: cell-based or functional assay
[15] = target: SARS-CoV-2 spike (S) glycoprotein, Omicron BA.5 (SARS-CoV-2, UniProt P0DTC2 14-1273); experiment: cell-based or functional assay
[16] = target: T5, SARS-CoV-2 spike (S) glycoprotein, D614G; experiment: cell-based or functional assay; remark: listed apart in the source
[17] = target: T2, SARS-CoV-2 spike (S) glycoprotein, …; experiment: cell-based or functional assay; remark: listed apart in the source
[18] = target: T3, SARS-CoV-2 spike (S) glycoprotein, …; experiment: cell-based or functional assay; remark: listed apart in the source
[19] = target: T4, SARS-CoV-2 spike (S) glycoprotein, …; experiment: cell-based or functional assay; remark: listed apart in the source
[20] = target: SARS-CoV-2 spike (S) glycoprotein, Delta (B.1.617.2) (SARS-CoV-2, UniProt P0DTC2 14-1273); experiment: cell-based or functional assay
[21] = target: SARS-CoV-2 spike (S) glycoprotein, Omicron BA.5.5 (SARS-CoV-2, UniProt P0DTC2 14-1273); experiment: cell-based or functional assay
[22] = target: T2, SARS-CoV-2 spike (S) glycoprotein, …; experiment: cell-based or functional assay; remark: listed apart in the source
[23] = target: T3, SARS-CoV-2 spike (S) glycoprotein, …; experiment: cell-based or functional assay; remark: listed apart in the source

Row | Binder | pseudovirus neutralization IC50 [1] | pseudovirus neutralization IC50 [2] | pseudovirus neutralization IC50 [3] | normalized pseudoneutralization IC50 [4] | normalized pseudoneutralization IC50 [5] | normalized pseudoneutralization IC50 [6] | normalized pseudoneutralization IC50 [7] | normalized pseudoneutralization IC50 [8] | EC50 (read off the curve) [10] | other results
1 | B1 | 1.11 ng/mL | 556 ng/mL |  |  |  |  |  |  |  | 
2 | B2 | 0.0392 ng/mL | 118 ng/mL | 603 ng/mL | 0.162 ng/mL | 34.3 ng/mL | 3.02 ng/mL | 32 ng/mL | 4030 ng/mL | ~1000 ng/mL | EC50 (read off the curve) [9]: ~1000 ng/mL
3 | B3 | 0.852 ng/mL | 1.14 ng/mL | 3.21 ng/mL | 0.985 ng/mL | 0.779 ng/mL | 4.08 ng/mL | 2.56 ng/mL | 6.25 ng/mL |  | authentic virus neutralization IC50 (FRNT, Vero-TMPRSS2) [11]: < 10 ng/mL; authentic virus neutralization IC50 (FRNT, Vero-TMPRSS2) [12]: < 10 ng/mL; fold improvement of pseudoviral neutralization over COV2-2130 [13]: 90 fold; pseudoviral neutralization IC50 [13]: 1.9 ng/mL; authentic virus neutralization IC50 (FRNT, Vero-TMPRSS2) [14]: < 10 ng/mL; authentic virus neutralization IC50 (FRNT, Vero-TMPRSS2) [15]: < 10 ng/mL; authentic virus neutralization IC50 (FRNT, Vero-TMPRSS2) [16]: < 10 ng/mL; authentic virus neutralization IC50 (FRNT, Vero-TMPRSS2) [17]: < 10 ng/mL; authentic virus neutralization IC50 (FRNT, Vero-TMPRSS2) [18]: < 10 ng/mL; authentic virus neutralization IC50 (FRNT) [19]: 7.47 ng/mL; authentic virus neutralization IC50 (FRNT) [20]: 33.9 ng/mL; authentic virus neutralization IC50 (FRNT) [21]: 5.29 ng/mL; authentic virus neutralization IC50 (FRNT) [22]: 5.53 ng/mL; authentic virus neutralization IC50 (FRNT) [23]: 39.2 ng/mL
4 | B4 | 566 ng/mL | 626 ng/mL |  |  |  |  |  |  |  | 
5 | B5 |  |  |  |  |  |  |  |  |  | binding result [10]: no binding (tested: about 150 ug/ml)
6 | B6 | 1.15 ng/mL | 339 ng/mL |  | 1.47 ng/mL | 4.69 ng/mL | 4.92 ng/mL | 34.8 ng/mL | > 10000 ng/mL | ~2000 ng/mL | EC50 (read off the curve) [9]: ~2000 ng/mL
7 | B7 | 0.515 ng/mL | 0.178 ng/mL | 0.475 ng/mL |  |  |  |  |  | ~400 ng/mL | authentic virus neutralization IC50 (FRNT) [19]: 3.04 ng/mL; authentic virus neutralization IC50 (FRNT) [20]: 6.23 ng/mL; authentic virus neutralization IC50 (FRNT) [21]: 2.82 ng/mL; authentic virus neutralization IC50 (FRNT) [22]: 4.23 ng/mL; authentic virus neutralization IC50 (FRNT) [23]: 9.65 ng/mL
